These results are taken from PMC3715477.

For the test, the target named is CC-Gp047 (residues 1040–1365 of Gp047, putative receptor binding protein of C. jejuni phage NCTC12673) (Campylobacter jejuni phage NCTC12673). Nature of the test: SDS-resistant oligomers (method not named; data not shown); data not shown; oligomers called SDS-resistant; construct and conditions not told.

A word on the stoichiometry N: it is a count of units in the complex or per binding partner. In the case of “CC-Gp047 (residues 1040–1365 of Gp047, putative receptor binding protein of C. jejuni phage NCTC12673) (domain or fragment)”, the stoichiometry N was above 3.
